One molecule from patent US9057734B2, “Optogenetic probes for measuring membrane potential” (President and Fellows of Harvard College, priority 2010, dated 2015) can be followed below.

Data set [1] concerns cultured rat hippocampal neurons. Nature of the data set: Optical recording of action potentials under whole cell current clamp. Type of data set: cell-based. From the text:
We tested Arch 3 as a voltage indicator in cultured rat hippocampal neurons, using viral delivery. […] Individual spikes were accompanied by clearly identifiable increases of fluorescence (FIG. 7A). At a 2 kHz image acquisition rate, the signal-to-noise ratio in the fluorescence (spike amplitude:baseline noise) was 10.5.
Simultaneous fluorescence and whole-cell patch clamp recordings were acquired on a home-built, inverted epifluorescence microscope at room temperature. A diode laser operating at 100 mW, 640 nm (CrystaLaser, DL638-100-O) provided wide-field illumination at an intensity typically between 500-2000 W/cm^2. To minimize background signal from out-of-focus debris, illumination was often performed in through-the-objective total internal reflection fluorescence (TIRF) mode. Fluorescence emission was collected using a 60×, 1.45 NA oil immersion objective (Olympus), and separated from scattered excitation using a 660-760 nm bandpass emission filter (Chroma). For fast imaging of dynamic fluorescence responses and action potentials, images were acquired on an Andor iXon^+ 860 camera operating at up to 2,000 frames/s (using a small region of interest and pixel binning). Slower images with higher spatial resolution were acquired on an Andor iXon^+ 897 EMCCD. Custom software written in LabView (National Instruments) was used to synchronize illumination, collection of images, recording of membrane potential and cell current, and application of electrical stimuli to the cell.
E18 rat hippocampi were purchased from BrainBits and mechanically dissociated in the presence of 1 mg/mL papain (Worthington) before plating at 5,000-30,000 cells per dish on poly-L-lysine and Matrigel-coated (BD Biosciences) glass-bottom dishes. Cells were incubated in N+ medium (100 mL Neurobasal medium, 2 mL B27 supplement, 0.5 mM glutamine, 25 μM glutamate, penicillin-streptomycin) for 3 hours. […]
A spike identification algorithm was developed that could be applied either to electrically recorded V(t) or to optically determined V(t). […]

The nature of data set [2]: Relative photostability of Arch 3 and eGFP in Arch 3-eGFP fusion. In kind it is physicochemical. On the procedure:
To perform a direct comparison of photostability of Arch 3 and eGFP we studied the photobleaching of the Arch 3-eGFP fusion. This strategy guaranteed a 1:1 stoichiometry of the two fluorophores, simplifying the analysis. The experiments were performed on permeabilized cells, in the microscope, with video recording as the cells photobleached. We first recorded a movie of photobleaching of Arch 3 under 640 nm illumination; then on the same field of view we recorded photobleaching of eGFP under 488 nm illumination, with illumination intensity adjusted to yield approximately the same initial count rate as for Arch 3. Fluorescence background levels were obtained from nearby protein-free regions of each movie and were subtracted from the intensity of the protein-containing regions. The area under each photobleaching timetrace was calculated, yielding an estimate of the total number of detected photons from each fluorophore. The eGFP emission (λmax=509 nm) and the Arch emission (λmax=687 nm) were collected through different emission filters, so the raw counts were corrected for the transmission spectra of the filters and the wavelength-dependent quantum yield of the EMCCD camera. The result was that the relative number of photons emitted prior to photobleaching for eGFP:Arch 3 WT was 3.9:1, and for eGFP:Arch D95N this ratio was 10:1.

The nature of data set [3]: Spectroscopic characterization of purified Arch WT and D95N. In kind it is physicochemical. How it is done:
FIGS. 17A-17C show pH-dependent spectra of Arch 3 WT and D95N. […] At neutral pH, Arch absorbed maximally at 558 nm. Fluorescence emission (dashed line) was recorded on 2 μM protein solubilized in 1% DM, with λexc=532 nm. […] The absorption maximum was at 585 nm. […] Singular Value Decomposition of absorption spectra between 400-750 nm was used to calculate the fraction of the SB in the protonated state as a function of pH. The result was fit to a Hill function to determine the pKa of the SB.
Arch and its D95N mutant were expressed and purified from E. coli, following Bergo, V., et al. (Conformational changes detected in a sensory rhodopsin II-transducer complex. J. Biol. Chem. 278, 36556-36562 (2003)). Briefly, E. coli (strain BL21, pet28b plasmid) was grown in 1 L of LB with 100 μg/mL kanamycin, to an O.D 600 of 0.4 at 37° C. All-trans retinal (5 μM) and inducer (IPTG 0.5 mM) were added and cells were grown for an additional 3.5 hours in the dark. Cells were harvested by centrifugation and resuspended in 50 mM Tris, 2 mM MgCl2 at pH 7.3 and lysed with a tip sonicator for 5 minutes. The lysate was centrifuged and the pellet was resuspended in PBS supplemented with 1.5% dodecyl maltoside (DM). The mixture was homogenized with a glass/teflon Potter Elvehjem homogenizer and centrifuged again. The supernatant was concentrated and washed using a centricon 30k MWCO filter to a final volume of 3 mL.
The absorption spectra of purified Arch 3 WT and D95N were determined using an Ocean Optics USB4000 spectrometer with a DT-MINI-2-GS light source. Absorption spectra, for Arch 3 WT and D95N, were measured as a function of pH between pH 6 and 11. To determine the fluorescence emission spectra, proteins in a quartz cuvette were illuminated with the uncollimated beam of a 100 mW, 532 nm laser (Dragon Lasers, 532GLM100) or a 25 mW, 633 nm HeNe laser (Spectra-Physics). Scattered laser light was blocked with a 532 nm Raman notch filter (Omega Optical, XR03) or a 710/100 emission filter (Chroma), and fluorescence was collected perpendicular to the illumination with a 1000 micron fiber, which passed the light to an Ocean Optics QE65000 spectrometer. Spectra were integrated for 2 seconds.
The fluorescence quantum yields of Arch 3 WT and D95N were determined by comparing the integrated emission intensity to emission of a sample of the dye ALEXA FLUOR® 647 Conjugate. Briefly, the concentrations of micromolar solutions of dye and protein were determined using a visible absorption spectrum. […] The fluorescence emission spectra of dye and protein samples were measured with 633 nm excitation. The quantum yield was then determined by the formula
where Fl is the integrated fluorescence from 660 to 760 nm, ε is the extinction coefficient at 633 nm and c is the concentration.

B1: Arch 3 WT: Archaerhodopsin 3, light-driven proton pump from Halorubrum sodomense, used as fluorescent voltage indicator (protein)
chain: MDPIALQAGYDLLGDGRPETLWLGIGTLLMLIGTFYFLVRGWGVTDKDAREYYAVTILVPGIASAAYLSMFFGIGLTEVTVGGEMLDIYYARYADWLFTTPLLLLDLALLAKVDRVTIGTLVGVDALMIVTGLIGALSHTAIARYSWWLFSTICMIVVLYFLATSLRSAAKERGPEVASTFNTLTALVLVLWTAYPILWIIGTEGAGVVGLGIETLLFMVLDVTAKVGFGFILLRSRAILGDTEAPEPSAGADVSAAD
modifications: Halorubrum sodomense
notes: Archaerhodopsin 3, light-driven proton pump from Halorubrum sodomense, used as fluorescent voltage indicator
For the molecule B1, the “signal-to-noise ratio in the fluorescence (spike amplitude:baseline noise)” value in data set [1] (2 kHz image acquisition rate) is reported as 10.5. This molecule displayed a false-positive rate in data set [1] (n=269 spikes) of 0.7%. In addition, in data set [1] (up to 4 minutes of cumulative exposure), the “change in resting potential or spike frequency during observation” value is given as “no detectable change in resting potential or spike frequency”. Moreover, the “photons prior to photobleaching relative to eGFP” value in data set [2] is on record as “approximately 25%”. Also, in data set [3] (calibrated assuming peak extinction coefficient of Bacteriorhodopsin, 63,000 M^−1 cm^−1), the ε633 is reported as 6,300 M^−1cm^−1. In addition, the QY in data set [3] (comparison to Alexa 647, excitation at 633 nm, listed as Arch WT) is on record as 9 × 10^−4.
